Key:
Conditions in all cases: both partners purified
wild-type calmodulin [1] = target: T1, wild-type calmodulin (UniProt P0DP23 1-149); assay: ITC; in the presence of 10 uM free Ca2+; NaV1.6CTD peptide and WT CaM or D96V-CaM
T1 construct: Calmodulin (CaM), recombinant; GenBank M19381.1 (mouse CaM I) is printed only for the transgene of the mice, not for the recombinant protein; also called WT CaM; CaM

wild-type calmodulin [2] = target: T1, wild-type calmodulin; assay: ITC; 0 Ca2+; Microcal VP-ITC, 25°C, 10 mM Mops, 2 mM EGTA, 1 mM TCEP, 150 mM KCl, pH 7; NaV1.5CTD (55-75 uM) or NaV1.6CTD (73-110 uM) peptides and WT CaM or D96V-CaM (5-15 uM); 28 injections; fitted to a model of 1 binding site per monomer
WT calmodulin [3] = target: T2, WT calmodulin (UniProt P0DP23 1-149); assay: ITC; Microcal VP-ITC, 25°C, 10 mM Mops, 2 mM EGTA, 1 mM TCEP, 150 mM KCl, pH 7, 0 Ca2+; NaV1.5CTD (55-75 uM) or NaV1.6CTD (73-110 uM) peptide and WT CaM or D96V-CaM (5-15 uM); fitted to a model of 1 binding site per monomer
T2 construct: calmodulin, recombinant; Legends say the recombinant CaMs were not FLAG tagged in the patch-clamp experiments; nothing is said of tags for ITC; also called WT CaM; WT-CaM

WT calmodulin [4] = target: T2, WT calmodulin; assay: ITC; Microcal VP-ITC, 25°C, 10 mM Mops, 2 mM EGTA, 1 mM TCEP, 150 mM KCl, 1.93 mM CaCl2, pH 7, 10 uM free Ca2+; NaV1.6CTD (73-110 uM) peptide and WT-CaM (12 uM) or D96V-CaM (16 uM); fitted to a one-binding site per monomer model

B1: hNaV1.6CTD peptide (residues 1891-1918 of human NaV1.6) (peptide)
peptide: RRKQEEVSAVVLQRAYRGHLARRGFICK
notes: Carboxy terminal domain peptide with the IQ motif of human NaV1.6, residues 1891-1918; source: synthetic peptide (LifeTein), at least 90% purity by HPLC
- Kd (wild-type calmodulin [1]): 132 nM
- Kd (wild-type calmodulin [2]): 243 nM

B2: hNaV1.6CTD peptide (residues 1891-1918 of human NaV1.6) (peptide)
peptide: RRKQEEVSAVVLQRAYRGHLARRGFICK
notes: human NaV1.6 carboxy terminal domain stretch with the IQ motif, residues 1891-1918; source: synthetic peptide (LifeTein), at least 90% purity by HPLC
- stoichiometry N (WT calmodulin [3]): 1
- stoichiometry N (WT calmodulin [4]): 1

From paper PMC10065082 (The Journal of Clinical Investigation, 2023)
